Experiment [1] has as its target human 4-1BB on activated primary human immune cells (human (endogenous in primary PBMC)) (UniProt Q07011).
Experiment [2] addresses ATOR-1017 (evunzekibart) (human). Description: BLI; Octet RED96; antibodies captured on FABG2 biosensor tips, recombinant Fcγ receptors in solution at suitable concentration ranges; association and dissociation at physiological pH. The note with it: remark: other sources report otherwise. For orientation: In BLI a coated tip is dipped into the sample, and binding shifts an interference pattern.

IFNγ production by IL-2 pre-stimulated human NK cells co-cultured with FcγRI-CHO cells, serially diluted ATOR-1017, IFNγ production by anti-CD3-activated human CD8+ T cells co-cultured with FcγRI-CHO cells, 72 h, serially diluted ATOR-1017 and Kd data for 4 molecules are collected here from article PMC10700433.

human 4-1BB on activated primary human immune cells (human (endogenous in primary PBMC)), sequence (Q07011 24-255): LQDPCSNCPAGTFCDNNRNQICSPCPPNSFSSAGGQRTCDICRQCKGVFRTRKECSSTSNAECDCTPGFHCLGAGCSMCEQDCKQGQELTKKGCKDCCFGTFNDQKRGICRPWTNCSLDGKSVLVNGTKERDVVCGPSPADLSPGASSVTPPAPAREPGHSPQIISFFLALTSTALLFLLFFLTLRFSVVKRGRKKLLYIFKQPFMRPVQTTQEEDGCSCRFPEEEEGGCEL

B1: ATOR-1017 (evunzekibart) (antibody, V domains shown)
VH: EVQLLESGGGLVQPGGSLRLSCAASGFNFGYSYMSWVRQAPGKGLEWVSSIGSTSSHTYYADSVKGRFTISRDNSKNTLYLQMNSLRAEDTAVYYCARVYSSPGIDYWGQGTLVTVSS
VL: DIQMTQSPSSLSASVGDRVTITCRASQSIGSTLNWYQQKPGKAPKLLIYGASSLQSGVPSRFSGSGSGTDFTLTISSLQPEDFATYYCQQYYTWVPFTFGQGTKLEIK
In experiment [1], B1 returned an IFNγ production by IL-2 pre-stimulated human NK cells co-cultured with FcγRI-CHO cells, serially diluted ATOR-1017 of 0.1 nM and an IFNγ production by anti-CD3-activated human CD8+ T cells co-cultured with FcγRI-CHO cells, 72 h, serially diluted ATOR-1017 of 0.2 nM.

B2: human FcγRIIb, P31994 43-310 (receptor)
chain: TPAAPPKAVLKLEPQWINVLQEDSVTLTCRGTHSPESDSIQWFHNGNLIPTHTQPSYRFKANNNDSGEYTCQTGQTSLSDPVHLTVLSEWLVLQTPHLEFQEGETIVLRCHSWKDKPLVKVTFFQNGKSKKFSRSDPNFSIPQANHSHSGDYHCTGNIGYTLYSSKPVTITVQAP
modifications: here or on the partner: soluble ectodomain assumed for BLI
As usually defined, the Kd is the concentration at which binding is half-saturated. As to B2, the Kd in experiment [2] was 800 nM.

B3: mouse FcγRI, P26151 25-404 (receptor)
chain: EVVNATKAVITLQPPWVSIFQKENVTLWCEGPHLPGDSSTQWFINGTAVQISTPSYSIPEASFQDSGEYRCQIGSSMPSDPVQLQIHNDWLLLQASRRVLTEGEPLALRCHGWKNKLVYNVVFYRNGKSFQFSSDSEVAILKTNLSHSGIYHCSGTGRHRYTSAGVSITVKELFTTPVLRASVSSPFPEGSLVTLNCETNLLLQRPGLQLHFSFYVGSKILEYRNTSSEYHIARAEREDAGFYWCEVATEDSSVLKRSPELELQVLGPQSSAP
modifications: here or on the partner: soluble ectodomain assumed for BLI
For B3, the Kd in experiment [2] turned out to be 200 nM.

B4: human FcγRIIa, P12318 34-317 (receptor)
chain: QAAAPPKAVLKLEPPWINVLQEDSVTLTCQGARSPESDSIQWFHNGNLIPTHTQPSYRFKANNNDSGEYTCQTGQTSLSDPVHLTVLSEWLVLQTPHLEFQEGETIMLRCHSWKDKPLVKVTFFQNGKSQKFSHLDPTFSIPQANHSHSGDYHCTGNIGYTLFSSKPVTITVQVPSMGSSSPMG
modifications: here or on the partner: Soluble extracellular domain by convention (UniProt topology); construct limits not printed. Allotype of the recombinant protein not stated in the excerpt: given as H131 (H167 in precursor numbering);
With B4, the Kd in experiment [2] came to 1000 nM.
